Reference: patent publication US20240209088A1 (NMI NATURWISSENSCHAFTLICHES UND MEDIZINISCHES INSTITUT AN …, published 2024)
Numbering of substitutions follows the chain as printed.

T1: murine CD4 on mouse CD4+ cells (mouse, UniProt P06332 27-457)
T1 construct: whole, on cells; also called murine CD4+ lymphocytes
T1 sequence (looked up): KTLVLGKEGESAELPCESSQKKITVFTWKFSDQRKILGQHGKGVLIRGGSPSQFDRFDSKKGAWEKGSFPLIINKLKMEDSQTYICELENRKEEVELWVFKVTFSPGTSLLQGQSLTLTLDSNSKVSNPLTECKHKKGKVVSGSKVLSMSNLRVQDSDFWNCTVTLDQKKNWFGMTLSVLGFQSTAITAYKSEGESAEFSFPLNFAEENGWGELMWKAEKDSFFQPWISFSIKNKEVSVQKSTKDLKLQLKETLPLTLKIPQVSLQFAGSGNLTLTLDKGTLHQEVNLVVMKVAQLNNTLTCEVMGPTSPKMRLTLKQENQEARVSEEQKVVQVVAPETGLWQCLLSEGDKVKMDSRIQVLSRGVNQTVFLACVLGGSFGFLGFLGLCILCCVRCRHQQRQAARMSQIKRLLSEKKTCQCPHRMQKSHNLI

B1: CD4-Nb2 (VHH)
VHH: EVQLVESGGGSVQPGGSLRLSCGASGFDVDYYAIGWFRQAPGKEREGVSCIASSDGSTYYADSVKGRFTISRDNAKNTVYLQMNSLKPEDTAVYYCAADATCPYYCSGSVCYLETGMDYWGEGTLVTVSS
notes: Unlabeled, expressed in E. coli
B2: mutant CD4-Nb1 (all lysine residues replaced with arginine residues) (VHH)
VHH: EVQLVESGGGLVQPGGSLRLSCAASGFTFSRLAMSWHREPPGRGREWLADIDSSGDTTDYLASVRGRFTISRDNARNTLYLQMDSLRSEDTGVYYCASREDPPGYWGQGTQVTVSS
notes: Expressed in bacteria; also called mutant nanobody; mutant version of the nanobody
B3: CD4-Nb3 (VHH)
VHH: HVQLVESGGGLVQPGGSLRLSCAVSGFALEYYAIGWFRQAPGKERERVACMSASGGVINYSESVKGRFTISRDNAKNTVYLQMNTLKPEDTAVYYCAAEKAYYGSSWAECYLMMDYWGKGTLVTVSS
notes: as for B1
B4: CD4-Nb4 (VHH)
VHH: EVQLQESGGALAQPGGSLRLSCAVSGFTFGTYGMGWLRQAPGKGREFVAAINWIHGGEIYADSVKGRFTISKDNAKNTLYLQMDSLKPEDTAVYYCAARSGTSLYTGVDEYQYWGQGTQVTVSS
notes: as for B1
B5: CD4-Nb1 (VHH)
VHH: B2 VHH with R31K, R43K, R65K, R76K, R87K
notes: Unlabeled, expressed in E. coli; also called non-mutated CD4-Nb1
B6: CD4-Nb5 (VHH)
VHH: EVQLQESGGGLVQAGGSLRLSCKVSGRTFGTYAMGWFRQAPGKEREFVAVISWIKGNTYVADSVLGRFTISRDNARNWLHLQMYSLKPEDTATYYCAASSTVTLPTTLDPYTYWGQGTPVTVSS
notes: Unlabeled; excluded from further analyses after the live-cell staining
B7: CD4-Nb1-Cy5.5 (VHH)
VHH: B2 VHH with R31K, R43K, R65K, R76K, R87K
modifications: C-terminus sortase-coupled to H-Gly-Gly-Gly-propyl-azide, then click-labeled with DBCO-Cy5.5
notes: also called hCD4-Nb1-Cy5.5; Cy5.5-labeled CD4-Nb1
B8: CD4-Nb1 sortase-coupled to the fluorescent dye CF568 (VHH)
VHH: B2 VHH with R31K, R43K, R65K, R76K, R87K
modifications: C-terminus sortase-coupled to the CF568-coupled peptide H-Gly-Gly-Gly-Doa-Lys-NH2 (labeling ratio 1:1)
notes: also called CF568-labeled CD4-Nb1; CD4-Nbs-CF568
B9: ^64Cu-CD4-Nb1 (VHH)
VHH: B2 VHH with R31K, R43K, R65K, R76K, R87K
modifications: azide-coupled C-terminus reacted with BCN-NODAGA and radiolabeled with 64Cu
notes: also called ^64Cu-hCD4-Nb1

Columns and labels:
[1] = biological target: T2, full-length human CD4 on cells (human, UniProt P01730 26-458); assay: flow cytometry on cells expressing hCD4
T2 construct: whole, on cells; Stably expressed (CHO-hCD4, HEK293-hCD4) or endogenous (PBMCs, human CD4+ cells from blood, HPB-ALL, T cell lines); also called hCD4; cell-resident hCD4
Method: (§1) (E) EC₅₀ determination by flow cytometry.
(§2) For each staining condition 200,000 cells were incubated with suitable dilution series of CD4 nanobodies at 4° C. for 30 min. Cells were washed two times and for detection Cy5 AffiniPure Goat Anti-Alpaca IgG, VHH domain (Jackson ImmunoResearch) was applied for 15 min. […] Final data analysis was performed via FloJo10® software.

[2] = biological target: T3, recombinant extracellular portion of human CD4 (domains D1-4) (human, UniProt P01730 26-396, for BLI biotinylated with 3-fold molar excess of biotin-N-hydroxysuccinimide ester; not biotinylated in HDX-MS); assay: BLI, biotinylated extracellular domain of hCD4 on streptavidin sensor, serial dilutions of Nb
T3 construct: extracellular domain; also called recombinant hCD4; extracellular domain of hCD4
Method: (§3) To determine the binding affinity of purified Nbs to recombinant hCD4, biolayer interferometry (BLItz, ForteBio) was performed. First, CD4 was biotinylated by 3-fold molar excess of biotin-N-hydroxysuccinimide ester. CD4 was then immobilized at single-use high-precision streptavidin biosensors (SAX) according to manufacturer's protocols. […] As a reference run, PBS was used instead of Nb in the association step. […] Recorded sensograms were analyzed using the BLItzPro software and dissociation constants (KD) were calculated based on global fits.
(§4) To quantitatively assess affinities, biolayer interferometry (BLI) measuring serial dilutions of Nbs were performed on the biotinylated extracellular domain of hCD4 immobilized at the sensor tip.

[3] = biological target: T3, recombinant extracellular portion of …; assay: BLI (affinity constants predetermined by BLI analysis)
Method: as §3

[4] = biological target: T2, full-length human CD4 on cells; assay: flow cytometry, percentage of positively stained hCD4-expressing cells against Nb concentration, four-parametric sigmoidal model
[5] = biological target: T2, full-length human CD4 on cells; assay: flow cytometry on HEK293-hCD4 cells, detection with anti-VHH Cy5 antibody
Method: For each staining condition 200,000 cells were incubated with suitable dilution series of CD4 nanobodies at 4° C. for 30 min. Cells were washed two times and for detection Cy5 AffiniPure Goat Anti-Alpaca IgG, VHH domain (Jackson ImmunoResearch) was applied for 15 min. […] After two washing steps, samples were resuspended in 200 μl FACS buffer and analyzed with a BD FACSMelody Cell Sorter. Final data analysis was performed via FloJo10® software.
In addition, corresponding EC50 values were determined with full-length plasma membrane-located hCD4 on HEK293-hCD4 cells by flow cytometry.

[6] = biological target: T3, recombinant extracellular portion of …; assay: biolayer interferometry, biotinylated hCD4 immobilized on streptavidin biosensors
Method: (§5) (D) For biolayer interferometry-based affinity measurements, biotinylated hCD4 was immobilized on streptavidin biosensors.
as §3

[7] = biological target: T3, recombinant extracellular portion of …; assay: biolayer interferometry, biotinylated hCD4 immobilized on streptavidin biosensors; box in the panel prints [CD4_Nb1]: 15.625-125 nM
Method: as §3

[8] = biological target: T3, recombinant extracellular portion of …; assay: BLI
[9] = biological target: T3, recombinant extracellular portion of …; assay: biolayer interferometry on human CD4; the sheet prints Conc: 0.625 - 5 nM, four sensorgrams up to about 0.17 nm
[10] = biological target: T2, full-length human CD4 on cells; assay: flow cytometry, percentage of positively stained hCD4-expressing cells against Nb concentration, four-parametric sigmoidal model; the curve rises only to about 3 % at the highest concentration near 10^-4.5 M
[11] = biological target: T3, recombinant extracellular portion of …; assay: BLI, biotinylated extracellular domain of hCD4 on streptavidin sensor, serial dilutions of Nb; BLI on biotinylated extracellular domain of hCD4 at the sensor tip
Method: as §3, §4

[12] = biological target: T3, recombinant extracellular portion of …; assay: biolayer interferometry, biotinylated hCD4 immobilized on streptavidin biosensors, four Nb concentrations; the subscript is redrawn as O, KD by the legend paragraph 99
Method: as §5, §3

[13] = biological target: T2, full-length human CD4 on cells; assay: flow cytometry on HEK293-hCD4 cells, detection with anti-VHH Cy5 antibody; flow cytometry, full-length hCD4 on HEK293-hCD4 cells
[14] = biological target: T2, full-length human CD4 on cells; assay: flow cytometry, percentage of positively stained hCD4-expressing cells against Nb concentration; the subscript is redrawn as 56, EC50 by the legend paragraph 99
Method: as §1, §2

[15] = biological target: T2, full-length human CD4 on cells; assay: live-cell immunofluorescence of CHO-hCD4 cells, unlabeled Nb detected with anti-VHH Cy5 secondary antibody
[16] = biological target: T1, murine CD4 on mouse CD4+ cells; assay: flow cytometry of mouse CD4+ cells from spleen and lymph nodes
[17] = biological target: T4, hCD4 domain-deletion mutant lacking domains D1 and D2 (CD4_ΔD1ΔD2) (human, UniProt P01730 26-458); assay: live-cell immunofluorescence of CHO cells transiently expressing the domain-deletion mutant, CF568-labeled Nb
T4 construct: whole, on cells; Transiently expressed in CHO wt cells; also called pcDNA3.1_CD4_ΔD1ΔD2_IRES-eGFP

[18] = biological target: T5, hCD4 domain-deletion mutant lacking domain D1 (CD4_ΔD1) (human, UniProt P01730 26-458); assay: as above
T5 construct: whole, on cells; Transiently expressed in CHO wt cells; also called pcDNA3.1_CD4_ΔD1_IRES-eGFP

[19] = biological target: T2, full-length human CD4 on cells; assay: in vitro radioimmunoassay on HPB-ALL cells (data not shown)

Binder | EC50 [1] | Kd [2] | Kd [3] | koff [6] | kon [6] | other results
B1 | 0.73 nM | ~7 nM | 6.5 nM | 0.000795 s⁻¹ | 122000 M⁻¹ s⁻¹ | EC50 [4]: 0.73 nM; EC50 [5]: ~0.7 nM; Kd [7]: 6.53 nM
B2 | – | – | – | – | – | Kd [8]: ~1 nM; Kd [9]: 1 nM
B3 | 533 nM | 75 nM | 75.3 nM | 0.00618 s⁻¹ | 82000 M⁻¹ s⁻¹ | EC50 [4]: 533 nM
B4 | 7360 nM | 135 nM | – | 0.016 s⁻¹ | 118000 M⁻¹ s⁻¹ | EC50 [10]: 7360 nM
B5 | 0.74 nM | – | 5.1 nM | 0.000613 s⁻¹ | 121000 M⁻¹ s⁻¹ | Kd [11]: ~5 nM; Kd [12]: 5.09 nM; EC50 [13]: ~0.7 nM; EC50 [14]: 0.74 nM
B6 | – | – | – | – | – | binding result [15]: no binding (tested: not printed on the sheet)
B7 | – | – | – | – | – | binding result [16]: no binding
B8 | – | – | – | – | – | binding result [17]: no binding (tested: not printed on the sheet); binding result [18]: no binding (tested: not printed on the sheet)
B9 | – | – | – | – | – | fold over the non-specific binding to CD4-negative DHL cells or of the 64Cu-GFP-Nb control [19]: ~30 times
